Assays:
Experiment in all cases: ELISA: Fc-His proteins (1 nM) captured on anti-6-His antibody, antibody A 10 µg/mL with human IgG 100 µg/mL, HRP anti-mouse IgG, OD450 as % of mouse EphA4-Fc-His
[1] = molecular target: T1, mouse EphA10 extracellular region-Fc-His protein (mouse; human, UniProt Q8BYG9 23-565)
T1 construct: extracellular domain; not shown: Fc region of human IgG1; histidine tag
T1 sequence (looked up): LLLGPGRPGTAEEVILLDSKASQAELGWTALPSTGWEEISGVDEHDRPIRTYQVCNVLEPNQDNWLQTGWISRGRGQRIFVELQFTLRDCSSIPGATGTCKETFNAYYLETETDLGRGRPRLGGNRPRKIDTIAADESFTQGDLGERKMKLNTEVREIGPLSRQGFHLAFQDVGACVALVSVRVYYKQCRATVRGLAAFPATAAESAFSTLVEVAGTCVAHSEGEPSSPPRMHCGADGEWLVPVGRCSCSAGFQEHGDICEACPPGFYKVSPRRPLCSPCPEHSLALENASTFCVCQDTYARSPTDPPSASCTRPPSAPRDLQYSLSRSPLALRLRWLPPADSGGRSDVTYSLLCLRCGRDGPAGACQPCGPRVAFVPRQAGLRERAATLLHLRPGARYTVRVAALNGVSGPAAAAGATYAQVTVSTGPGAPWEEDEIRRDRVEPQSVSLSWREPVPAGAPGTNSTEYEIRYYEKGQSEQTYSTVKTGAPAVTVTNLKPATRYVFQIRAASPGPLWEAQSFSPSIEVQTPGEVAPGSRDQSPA
Protocol: (§1) Rabbit anti-6-His antibodies (Bethyl Laboratories) were coated onto the wells of a 96-well plate (Nunc). After incubating at 4° C. overnight, the wells were blocked at room temperature for 1 hour by 1% Block Ace (DS Pharma Biomedical). After washing 3 times with 0.05% Tween 20/PBS (Thermo […]), each Eph receptor of mouse extracellular region-Fc-His protein (final concentration 1 nM) was seeded into each well, and incubated at room temperature for 1 hour. After washing 3 times, human IgG solution (100 μg/mL, Sigma) and antibody A (10 μg/mL) were supplemented to the wells, and incubated at room temperature for 1 hour. Horseradish peroxidase-labeled donkey anti-mouse IgG antibody (Jackson ImmunoResearch Laboratories) was added, and incubated at room temperature for 1 hour. After washing 3 times, TMBZ (3,3′,5,5′-tetramethylbenzidine, Sigma) solution was added to the wells, and upon confirmation of modest coloring, an equal amount of quenching solution (1 N H₂SO₄, Wako Pure Chemicals) was added to the wells, and absorbance at 450 nm was read by a microplate reader (PerkinElmer).

[2] = molecular target: T2, mouse EphB6 extracellular region-Fc-His protein (mouse; human, UniProt O08644 33-591)
T2 construct: extracellular domain; not shown: Fc region of human IgG1; histidine tag
T2 sequence (looked up): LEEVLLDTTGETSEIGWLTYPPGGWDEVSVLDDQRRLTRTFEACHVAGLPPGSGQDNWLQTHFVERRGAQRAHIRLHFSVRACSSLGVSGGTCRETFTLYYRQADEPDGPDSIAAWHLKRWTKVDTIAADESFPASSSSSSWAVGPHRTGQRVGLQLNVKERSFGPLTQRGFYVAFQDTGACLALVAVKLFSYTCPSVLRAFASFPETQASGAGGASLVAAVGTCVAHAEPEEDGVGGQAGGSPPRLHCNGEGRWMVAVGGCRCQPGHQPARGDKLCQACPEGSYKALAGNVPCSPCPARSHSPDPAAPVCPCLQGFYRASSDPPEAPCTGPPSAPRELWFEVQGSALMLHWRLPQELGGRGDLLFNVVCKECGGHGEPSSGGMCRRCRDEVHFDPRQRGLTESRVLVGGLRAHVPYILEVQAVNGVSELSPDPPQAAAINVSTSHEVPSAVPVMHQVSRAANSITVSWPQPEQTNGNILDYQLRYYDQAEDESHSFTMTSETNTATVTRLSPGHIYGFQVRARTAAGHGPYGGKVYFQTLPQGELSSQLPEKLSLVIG
Protocol: as §1

[3] = molecular target: T3, mouse EphB2 extracellular region-Fc-His protein (mouse; human, UniProt P54763 19-543)
T3 construct: extracellular domain; not shown: Fc region of human IgG1; histidine tag
T3 sequence (looked up): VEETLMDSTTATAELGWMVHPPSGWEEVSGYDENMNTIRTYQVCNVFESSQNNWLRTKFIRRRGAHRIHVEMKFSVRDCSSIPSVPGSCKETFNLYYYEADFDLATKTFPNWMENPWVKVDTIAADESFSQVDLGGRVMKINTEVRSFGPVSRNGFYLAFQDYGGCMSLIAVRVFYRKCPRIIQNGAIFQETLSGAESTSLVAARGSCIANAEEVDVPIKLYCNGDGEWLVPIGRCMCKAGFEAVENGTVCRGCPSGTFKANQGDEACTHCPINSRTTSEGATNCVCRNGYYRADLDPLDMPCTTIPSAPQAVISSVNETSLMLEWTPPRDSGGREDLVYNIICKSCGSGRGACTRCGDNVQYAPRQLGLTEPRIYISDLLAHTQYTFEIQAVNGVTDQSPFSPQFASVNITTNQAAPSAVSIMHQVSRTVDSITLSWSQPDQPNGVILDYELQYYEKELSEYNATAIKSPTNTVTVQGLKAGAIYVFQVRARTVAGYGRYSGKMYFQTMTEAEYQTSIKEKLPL
Protocol: as §1

Measured: binding result

B1: mouse anti-EphA4 monoclonal antibody (antibody A) (antibody, mouse IgG1, kappa, V domains shown)
VH: QVQLKQSGPSLVQPSQSLSITCTVSGFSLTRYGVHWVRQSPGKGLEWLGVIWRGGSTDYNAAFMSRLSITKDNSKSQVFFKMNSLQADDTAIYYCAKESLFGVYYDYGYYSMDYWGQGTSVTVSS
VL: DIQMTQSPSSLSASLGERVSLTCRASQEISGYLSWLQQKPDGTIKRLIYAASTLDSGVPKRFSGSRSGSDYSLTISSLESEDFADYYCLQYASYPLTFGAGTKLELKR
notes: purified from hybridoma supernatant
no binding (tested: 10 µg/mL): all assays above
